Test results as given in patent EP2042517A1.
pKd: −log10 of the molar value.

What was measured:
[1] = biological target: FcγRIIIa on human PBMCs, heterozygous V158/F158 (human) (UniProt P08637); assay: cell-based or functional assay
[2] = biological target: FcγRIIIa on human PBMCs, homozygous F158/F158 (human) (UniProt P08637); assay: cell-based or functional assay
[3] = biological target: F158 FcγRIIIa used in SPR (human) (UniProt P08637); assay: SPR
[4] = biological target: His-tagged V158 FcγRIIIa (human) (UniProt P08637); assay: SPR, His-tagged receptor immobilized, antibody flowed
[5] = biological target: human V158 FcγRIIIa extracellular region fused with GST (human) (UniProt P08637); assay: AlphaScreen competition

Substance	ADCC EC50 (DoHH-2 target cells, human PBMCs) [1] [ng/mL]	Fold vs WT [5] [fold]	also measured
alemtuzumab S239D/I332E (antibody)	3	–	–
wild-type rituximab (antibody)	–	–	ADCC EC50 (WIL2-S target cells, human PBMCs) [2]: 1.7 ng/mL
alemtuzumab V264I/N297D/I332E (antibody)	–	0.05	–
alemtuzumab A298H (antibody)	–	0.27	–

More lines, main results first:

ADCC EC50 (DoHH-2 target cells, human PBMCs) [1] [ng/mL]	Fold vs WT [5] [fold]	Substance	also measured
9.9	–	wild-type alemtuzumab (antibody)	pKd [3]: 6.14; pKd [4]: 7.17
4	–	alemtuzumab V264I/I332E (antibody)	–
